In assay [1] the target is anti-VEGF/ANG2 antibody (IgG1 subclass with mutations P329G/L234A/L235A) [IgG part: P01857]. The assay is described as follows: sandwich ELISA assay E; tracer M1.7.10-Dig; analyte 2) at 12.5 ng/mL. Background: An ELISA detects its analyte on a solid surface through an enzyme-linked reagent.
The target in assay [2] is anti-VEGF/ANG2 antibody (IgG1 subclass with mutations P329G/L234A/L235A/I253A/H310A/H435A) (human) [IgG part: P01857]. The assay is described as follows: sandwich ELISA in serum; M1.3.17-Bi capture on SA plate; tracer anti-human kappa M1.7.10-Dig; analyte 1.25 ng/mL.
The target in assay [3] is anti-VEGF/ANG2 antibody (IgG1 subclass with mutations P329G/L234A/L235A/I253A/H310A/H435A) [IgG part: P01857]. The assay is described as follows: sandwich ELISA in serum; capture M1.3.17, tracer M1.7.24; anti-VEGF/ANG2 antibody 156.25 ng/mL.
For assay [4], the target named is anti-Dig antibody (IgG1 subclass with mutations P329G/L234A/L235A) [IgG part: P01857]. The assay is described as follows: sandwich ELISA assay D; tracer M1.19.31-Dig; analyte conc. not printed (row 8 of 8).
In assay [5] the target is anti-VEGF/ANG2 antibody (IgG1 subclass with mutations P329G/L234A/L235A/I253A/H310A/H435A) [IgG part: P01857]. Kind of assay: bridging ELISA; biotinylated and digoxigenylated anti-VEGF/ANG2 antibody bridged by M1.3.17 at 62.5 ng/mL.
Assay [6] addresses anti-Dig antibody (IgG1 subclass with mutations P329G/L234A/L235A) [IgG part: P01857]. The assay is described as follows: sandwich ELISA assay D; tracer M1.7.10-Dig; analyte conc. not printed (row 5 of 8).
Assay [7] deals with anti-VEGF/ANG2 antibody (IgG1 subclass with mutations P329G/L234A/L235A/I253A/H310A/H435A) [IgG part: P01857]. The assay is described as follows: sandwich ELISA assay E; tracer M1.7.10-Dig; analyte 1) at 12.5 ng/mL.
The target in assay [8] is anti-VEGF/ANG2 antibody (IgG1 subclass with mutations P329G/L234A/L235A/I253A/H310A/H435A) (human) [IgG part: P01857]. Kind of assay: sandwich ELISA in serum; M1.3.17-Bi capture on SA plate; tracer anti-human kappa M1.7.10-Dig; analyte 2.5 ng/mL.
The target in assay [9] is anti-VEGF/ANG2 antibody (IgG1 subclass with mutations P329G/L234A/L235A/I253A/H310A/H435A) [IgG part: P01857]. The assay is described as follows: sandwich ELISA assay E; tracer M1.7.10-Dig; analyte 1) at 6.25 ng/mL.
For assay [10], the target named is anti-Dig antibody (IgG1 subclass with mutations P329G/L234A/L235A) [IgG part: P01857]. Kind of assay: sandwich ELISA assay D; tracer M1.7.10-Dig; analyte conc. not printed (row 3 of 8).
The target in assay [11] is anti-VEGF/ANG2 antibody (IgG1 subclass with mutations P329G/L234A/L235A/I253A/H310A/H435A) (human) [IgG part: P01857]. The assay is described as follows: sandwich ELISA in serum; M1.3.17-Bi capture on SA plate; tracer anti-human kappa M1.7.10-Dig; analyte 10 ng/mL.
Assay [12] deals with anti-VEGF/ANG2 antibody (IgG1 subclass with mutations P329G/L234A/L235A/I253A/H310A/H435A) [IgG part: P01857]. Kind of assay: sandwich ELISA in serum; capture M1.3.17, tracer M1.7.24; anti-VEGF/ANG2 antibody 312.5 ng/mL.
For assay [13] the target is unchanged. Kind of assay: bridging ELISA; biotinylated and digoxigenylated anti-VEGF/ANG2 antibody bridged by M1.3.17 at 31.25 ng/mL.
Assay [14] shares this target. The assay is described as follows: sandwich ELISA assay E; tracer M1.7.10-Dig; analyte 1) at 1.5625 ng/mL.
The target is the same in assay [15]. Kind of assay: sandwich ELISA in serum; capture M1.7.10-Bi, tracer M1.7.24-Dig; anti-VEGF/ANG2 antibody 5 ng/mL.
The target in assay [16] is cytokine (IL-2) antibody conjugate with the mutations P329G, L234A, L235A, I253A, H310A, and H435A. The assay is described as follows: sandwich ELISA in serum; capture anti-IL2 antibody, tracer M1.7.24; conjugate 78.125 ng/mL.
In assay [17] the target is anti-VEGF/ANG2 antibody (wild-type IgG1 subclass) (human) [IgG part: P01857]. The assay is described as follows: sandwich ELISA assay B; capture on SA plate; tracer M1.7.10-Dig; analyte 100 ng/mL.
For assay [18], the target named is cytokine (IL-2) antibody conjugate with the mutations P329G, L234A, L235A, I253A, H310A, and H435A. Kind of assay: sandwich ELISA in serum; capture anti-IL2 antibody, tracer M1.7.24; conjugate 312.5 ng/mL.
Assay [19] has the same target. The assay is described as follows: sandwich ELISA in serum; capture anti-IL2 antibody, tracer M1.7.24; conjugate 2500 ng/mL.
In assay [20] the target is anti-VEGF/ANG2 antibody (IgG1 subclass with mutations P329G/L234A/L235A/I253A/H310A/H435A) [IgG part: P01857]. The assay is described as follows: sandwich ELISA in serum; capture M1.7.10-Bi, tracer M1.7.24-Dig; anti-VEGF/ANG2 antibody 0.01953125 ng/mL.
The target is the same in assay [21]. The assay is described as follows: sandwich ELISA in serum; capture M1.7.10-Bi, tracer M1.7.24-Dig; anti-VEGF/ANG2 antibody 2.5 ng/mL.

B1: anti-variant (human) Fc-region antibody M1.3.17 (antibody, V domains shown)
VH: EVKLLESGGGLVQPGGSLKLSCAASGIDFRRYWMNWVRQAPGKGLEWIGEIDPDSSTINYTPSLKDKFIISRDNAKNTMYLQMRKVRSEDTALYYCARPYDYGAWFAYWGQGTLVTVSA
VL: QAVVTQESALTTSPGETVTLTCRSTTGAVTTSNYANWVQEKPDHLFTGLIGGTNKRAPGVPARFSGSLIGDKAALTITGAQTEDEAIYFCALWYSDHWVFGGGTKLTVL
As to B1, the signal [OD405 nm] in [1] turned out to be 0.96 OD405 nm; in assay [2], 0.573 OD405 nm; in assay [3] it was 0.418 OD405 nm; in assay [5], 0.063 OD405 nm; in assay [7], 1.09 OD405 nm; in assay [8], 0.987 OD405 nm. Moreover, the signal [OD405 nm] in [9] is 0.677 OD405 nm; in assay [11], 2.23 OD405 nm; in assay [12], 0.658 OD405 nm; in assay [13], 0.054 OD405 nm; in [14], 0.224 OD405 nm. The signal 10% cynomolgus serum [OD405 nm] in assay [4] was found to be 0.077 OD405 nm; in assay [6], 0.096 OD405 nm; in assay [10], 0.485 OD405 nm. Also, the signal 10% human serum [OD405 nm] in assay [4] is 1.8 OD405 nm; in [6] it was 2.49 OD405 nm; in [10], 2.51 OD405 nm. Further, the signal buffer [OD405 nm] in assay [4] is 0.036 OD405 nm; in assay [6], 0.031 OD405 nm; in [10], 0.037 OD405 nm.

B2: anti-variant (human) Fc-region antibody M1.7.24 (antibody, V domains shown)
VH: EVKLLESGGGLVQPGGSLKLSCAASGFDFSRYWMNWVRQAPGKGLEWIGEITPDSSTINYTPSLKDKFIISRDNAKNTLYLQMIKVRSEDTALYYCVRPYDYGAWFASWGQGTLVTVSA
VL: QAVVTQESALTTSPGETVTLTCRSSTGAVTTSNYANWVQEKPDHLFTGLIGGTNKRAPGVPARFSGSLIGDKAALTITGAQTEDEAIYFCALWYSNHWVFGGGTKLTVL
Take B2: the signal [OD405 nm] in [15] stood at 2.17 OD405 nm; in assay [1], 0.884 OD405 nm; in [16] it was 0.152 OD405 nm; in assay [17], 0.047 OD405 nm; in assay [18], 0.451 OD405 nm; in [7] it was 1.06 OD405 nm. The signal [OD405 nm] in assay [9] worked out at 0.64 OD405 nm; in assay [14] it was 0.208 OD405 nm; in [19] it was 2.35 OD405 nm; in [20], 0.057 OD405 nm; in assay [21], 1.44 OD405 nm. For the same molecule, the signal 10% cynomolgus serum [OD405 nm] in assay [4] amounted to 0.035 OD405 nm; in [6], 0.094 OD405 nm; in [10], 0.575 OD405 nm. The signal 10% human serum [OD405 nm] is 1.42 OD405 nm in assay [4], 2.41 OD405 nm in assay [6] and 2.48 OD405 nm in assay [10]. For the same molecule, the signal buffer [OD405 nm] is 0.033 OD405 nm in [4], 0.031 OD405 nm in assay [6] and 0.039 OD405 nm in assay [10].

B3: anti-AAA variant Fc-region antibody M1.6.22 (antibody, V domains shown)
VH: EVQLVESGGDLVKPGGSLKLSCAASGFTFSSYGMSWVRQTPDKRLEWVATISSGGSYIYYPDSVKGRFTISRDNAKNTLYLQMSSLKSEDTAMYYCARLGMITTGYAMDYWGQGTSVTVSS
VL: DVLMTQTPLSLPVSLGDQASISCRSSQTIVHSTGHTYLEWFLQKPGQSPKLLIYKVSNRFSGVPDRFSGSGSGTDFTLKISRVEAEDLGVYYCFQGSHVPYTFGGGTKLEIK
In the case of B3, in assay [17], the signal [OD405 nm] came to 0.061 OD405 nm.

The record behind these values is US20180346602A1.
